In article PMC9680306:

Key:
Assay in all cases: co-IP; anti-ARMS (mouse, MA1-90667) coupled MagPlex microspheres incubated overnight with cleared RIPA lysates of transfected HEK293 cells; bound TRPV1, ARMS or AKAP79 detected with rabbit antibodies and anti-rabbit-PE on FLEXMAP 3D (MFI); interaction ratio = TRPV1 MFI divided by ARMS MFI; cells untreated or treated with forskolin 50 uM + IBMX 100 uM, H89 10 uM or BPKDi 1 uM
[1] = biological target: ARMS0 (ARMS with all potential PKA sites mutated to alanine) (rat) (UniProt Q9EQG6)
[2] = biological target: ARMS_(S1251/52) (ARMS mutant keeping only the PKA site S1251/52) (rat) (UniProt Q9EQG6)
[3] = biological target: ARMS_(S1439/40) (ARMS mutant keeping only the PKA site S1439/40) (rat) (UniProt Q9EQG6)
[4] = biological target: ARMS_(S1526/27) (ARMS mutant keeping only the PKA site S1526/27) (rat) (UniProt Q9EQG6)
[5] = biological target: ARMS_(S882) (ARMS mutant keeping only the PKA site S882) (rat) (UniProt Q9EQG6)
[6] = biological target: ARMS_(T903) (ARMS mutant keeping only the PKA site T903) (rat) (UniProt Q9EQG6)
[7] = biological target: Ankyrin-rich membrane spanning protein (ARMS), wild type (rat) (UniProt Q9EQG6)

- TRPV1 MFI / ARMS MFI in the ARMS precipitate, cells treated with BPKDi [1]: 2%
- TRPV1 MFI / ARMS MFI in the ARMS precipitate, cells treated with H89 [1]: 4%
- TRPV1 MFI / ARMS MFI in the ARMS precipitate, cells treated with forskolin + IBMX [1]: 6%
- TRPV1 MFI / ARMS MFI in the ARMS precipitate, untreated cells [1]: 5%
- TRPV1 MFI / ARMS MFI in the ARMS precipitate, cells treated with BPKDi [2]: 5%
- TRPV1 MFI / ARMS MFI in the ARMS precipitate, cells treated with H89 [2]: 6%
- TRPV1 MFI / ARMS MFI in the ARMS precipitate, cells treated with forskolin + IBMX [2]: 18%
- TRPV1 MFI / ARMS MFI in the ARMS precipitate, untreated cells [2]: 15%
- TRPV1 MFI / ARMS MFI in the ARMS precipitate, cells treated with BPKDi [3]: 3%
- TRPV1 MFI / ARMS MFI in the ARMS precipitate, cells treated with H89 [3]: 4%
- TRPV1 MFI / ARMS MFI in the ARMS precipitate, cells treated with forskolin + IBMX [3]: 6%
- TRPV1 MFI / ARMS MFI in the ARMS precipitate, untreated cells [3]: 7%
- TRPV1 MFI / ARMS MFI in the ARMS precipitate, cells treated with BPKDi [4]: 25%
- TRPV1 MFI / ARMS MFI in the ARMS precipitate, cells treated with H89 [4]: 36%
- TRPV1 MFI / ARMS MFI in the ARMS precipitate, cells treated with forskolin + IBMX [4]: 63%
- TRPV1 MFI / ARMS MFI in the ARMS precipitate, untreated cells [4]: 60%
- TRPV1 MFI / ARMS MFI in the ARMS precipitate, cells treated with BPKDi [5]: 4%
- TRPV1 MFI / ARMS MFI in the ARMS precipitate, cells treated with H89 [5]: 5%
- TRPV1 MFI / ARMS MFI in the ARMS precipitate, cells treated with forskolin + IBMX [5]: 7%
- TRPV1 MFI / ARMS MFI in the ARMS precipitate, untreated cells [5]: 10%
- TRPV1 MFI / ARMS MFI in the ARMS precipitate, cells treated with BPKDi [6]: 4%
- TRPV1 MFI / ARMS MFI in the ARMS precipitate, cells treated with H89 [6]: 7%
- TRPV1 MFI / ARMS MFI in the ARMS precipitate, cells treated with forskolin + IBMX [6]: 9%
- TRPV1 MFI / ARMS MFI in the ARMS precipitate, untreated cells [6]: 12%
- TRPV1 MFI / ARMS MFI in the ARMS precipitate, cells treated with BPKDi [7]: 3%
- TRPV1 MFI / ARMS MFI in the ARMS precipitate, cells treated with H89 [7]: 4%
- TRPV1 MFI / ARMS MFI in the ARMS precipitate, cells treated with forskolin + IBMX [7]: 9%
- TRPV1 MFI / ARMS MFI in the ARMS precipitate, untreated cells [7]: 9%
Substance: transient receptor potential vanilloid 1 (TRPV1)-YFP (from UniProt O35433 1-838)
